Substitutions are numbered along the chain they refer to.
B1: humanized anti-human PD-L1 monoclonal antibody VLS10-VHS7 (antibody, human IgG1, kappa, V domains shown)
VH: QVQLVQSGAEVKKPGSSVKVSCTASGFNIEDTYIHWVRQAPGQGLEWMGRIDPANGNTKYDPKFQGRVTITADTSTNTAYMELSSLRSEDTAVYYCGRGLGAWFAYWGQGTLVTVSS
VL: DIQMTQSPSSLSASVGDRVTITCKASQDVHTAVAWIHQKPGKAPKLLIYSASNRYTGVPSRFSGSGSGTDFTFTISSLQPEDIATYYCQQHYITPLTFGQGTKLEIKR
B2: humanized anti-human PD-L1 monoclonal antibody VLS15-VHS12 P2 (antibody, human IgG1, kappa, V domains shown)
VH: B1 VH with Q1E, T23K, N55S
VL: B1 VL with H37Q, A43S
B3: humanized anti-human PD-L1 monoclonal antibody VLS15-VHS12 (antibody, human IgG1, kappa, V domains shown)
VH: B1 VH with Q1E, T23K
VL: B1 VL with H37Q, A43S
B4: humanized anti-human PD-L1 monoclonal antibody VLS15-VHS12 P1 (antibody, human IgG1, kappa, V domains shown)
VH: B1 VH with Q1E, T23K, N55Q
VL: B1 VL with H37Q, A43S
B5: humanized anti-human PD-L1 monoclonal antibody VLS15-VHS12 P3 (antibody, human IgG1, kappa, V domains shown)
VH: B1 VH with Q1E, T23K, G56A
VL: B1 VL with H37Q, A43S
B6: humanized anti-human PD-L1 monoclonal antibody VLS10-VHS7 P3 (antibody, human IgG1, kappa, V domains shown)
VH: B1 VH with G56A
VL: B1 VL
B7: humanized anti-human PD-L1 monoclonal antibody VLS10-VHS7 P2 (antibody, human IgG1, kappa, V domains shown)
VH: B1 VH with N55S
VL: B1 VL
B8: humanized anti-human PD-L1 monoclonal antibody VLS10-VHS7 P1 (antibody, human IgG1, kappa, V domains shown)
VH: B1 VH with N55Q
VL: B1 VL
B9: murine anti-human PD-L1 monoclonal antibody secreted by the clone 34-35 (antibody, V domains shown)
VH: EVQLQQSGAELVKPGASVKLSCTASGFNIEDTYIHWVMQRPEQGLEWIGRIDPANGNTKYDPKFQGKATITADTSSNTAYLQLSSLTSEDTAVYYCGRGLGAWFAYWGQGTLVTVSA
VL: DIVMTQSHKVMSTSVGDRVTITCKASQDVHTAVAWIHQKPGQSPKLLIYSASNRYTGVPDRFTGSGSGTDFTFTISSVQAEDLAVYYCQQHYITPLTFGAGTTLELK
notes: also called murine monoclonal antibodies
B10: humanized anti-human PD-L1 monoclonal antibody VLS15-VHS13 (antibody, human IgG1, kappa, V domains shown)
VH: B1 VH with Q1E, T23K, M48I, V68A, T74E
VL: B1 VL with H37Q, A43S
B11: humanized anti-human PD-L1 monoclonal antibody VLS15-VHS11 (antibody, human IgG1, kappa, V domains shown)
VH: B1 VH with Q1E, T23K, T74E
VL: B1 VL with H37Q, A43S
B12: humanized anti-human PD-L1 monoclonal antibody VLS15-VHS14 (antibody, human IgG1, kappa, V domains shown)
VH: B1 VH with Q1E, T23K, M48I, V68A
VL: B1 VL with H37Q, A43S
B13: humanized anti-human PD-L1 monoclonal antibody VLS9-VHS2 (antibody, human IgG1, kappa, V domains shown)
VH: B1 VH with V68A, T74E, N77S
VL: B1 VL with I36Y, H37Q
B14: humanized anti-human PD-L1 monoclonal antibody VLS9-VHS8 (antibody, human IgG1, kappa, V domains shown)
VH: B1 VH with V68A
VL: B1 VL with I36Y, H37Q
B15: humanized anti-human PD-L1 monoclonal antibody VLS10-VHS4 (antibody, human IgG1, kappa, V domains shown)
VH: B1 VH with T74E
VL: B1 VL
B16: humanized anti-human PD-L1 monoclonal antibody VLS9-VHS6 (antibody, human IgG1, kappa, V domains shown)
VH: B1 VH with V68A, T74E
VL: B1 VL with I36Y, H37Q
B17: humanized anti-human PD-L1 monoclonal antibody VLS9-VHS7 (antibody, human IgG1, kappa, V domains shown)
VH: B1 VH
VL: B1 VL with I36Y, H37Q
B18: humanized anti-human PD-L1 monoclonal antibody VLS10-VHS2 (antibody, human IgG1, kappa, V domains shown)
VH: B1 VH with V68A, T74E, N77S
VL: B1 VL
B19: humanized anti-human PD-L1 monoclonal antibody VLS9-VHS3 (antibody, human IgG1, kappa, V domains shown)
VH: B1 VH with N77S
VL: B1 VL with I36Y, H37Q
B20: humanized anti-human PD-L1 monoclonal antibody VLS10-VHS8 (antibody, human IgG1, kappa, V domains shown)
VH: B1 VH with V68A
VL: B1 VL
B21: humanized anti-human PD-L1 monoclonal antibody VLS10-VHS1 (antibody, human IgG1, kappa, V domains shown)
VH: B1 VH with T74E, N77S
VL: B1 VL
B22: humanized anti-human PD-L1 monoclonal antibody VLS9-VHS5 (antibody, human IgG1, kappa, V domains shown)
VH: B1 VH with V68A, N77S
VL: B1 VL with I36Y, H37Q
B23: humanized anti-human PD-L1 monoclonal antibody VLS9-VHS4 (antibody, human IgG1, kappa, V domains shown)
VH: B1 VH with T74E
VL: B1 VL with I36Y, H37Q
B24: humanized anti-human PD-L1 monoclonal antibody VLS10-VHS5 (antibody, human IgG1, kappa, V domains shown)
VH: B1 VH with V68A, N77S
VL: B1 VL
B25: humanized anti-human PD-L1 monoclonal antibody VLS10-VHS3 (antibody, human IgG1, kappa, V domains shown)
VH: B1 VH with N77S
VL: B1 VL
B26: humanized anti-human PD-L1 monoclonal antibody VLS10-VHS6 (antibody, human IgG1, kappa, V domains shown)
VH: B1 VH with V68A, T74E
VL: B1 VL
B27: humanized anti-human PD-L1 monoclonal antibody VLS9-VHS1 (antibody, human IgG1, kappa, V domains shown)
VH: B1 VH with T74E, N77S
VL: B1 VL with I36Y, H37Q

biological target: T1, recombinant human PD-L1 (Sino Biological Inc.) (human, UniProt Q9NZQ7 19-239); experiment: ELISA, human PD-L1 coated
Experimental: (§1) A 96-well high-adsorption ELISA plate was coated with 1 μg/mL of the recombinant human PD-L1 (Sino Biological Inc.) at 100 μL per well using carbonate buffer solution, pH=9.6 at 4° C. overnight. The plate was washed 5 times with PBST, and then blocked using PBST with 1% BSA, 300 μL/well, and incubated at 25° C. for 1 hour, and then washed 5 times with PBST. […] The horseradish peroxidase-labeled anti-human IgG antibody (Chemicon, catalog number AP309P) diluted 1:10000 in PBST with 1% BSA was then added, 100 μL per well, and incubated at 25° C. for 1 hour. The plate was washed 5 times with PBST. The colorimetric substrate TMB was added, 100 μL/well, and developed at room temperature for 10 minutes. 1M H₂SO₄ was added, 100 μL/well, to stop the development. The absorbance at 450 nm was read on a microplate reader.

T1 sequence (Q9NZQ7 19-239 limits assumed): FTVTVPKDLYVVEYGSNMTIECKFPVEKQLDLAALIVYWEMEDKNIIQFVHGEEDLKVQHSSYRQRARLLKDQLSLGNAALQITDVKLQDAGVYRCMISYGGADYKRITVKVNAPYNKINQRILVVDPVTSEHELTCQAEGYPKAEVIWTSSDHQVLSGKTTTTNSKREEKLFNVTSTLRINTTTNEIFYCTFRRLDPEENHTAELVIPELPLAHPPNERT

Row | EC50 [nM] | Binder
1 | 0.067 | B1
2 | 0.06 | B2
3 | 0.046 | B3
4 | 0.048 | B4
5 | 0.075 | B5
6 | 0.063 | B6
7 | 0.059 | B7
8 | 0.067 | B8

biological target: T1, recombinant human PD-L1 (Sino …); experiment: ELISA, plate coated with 1 ug/mL recombinant human PD-L1, anti-mouse IgG-HRP, OD450
Experimental: The plate was washed 5 times with PBST, and then blocked using PBST with 1% BSA, 300 μL/well, and incubated at 25° C. for 1 hour, and then washed 5 times with PBST. […] The plate was washed 5 times with PBST. The colorimetric substrate TMB was added, 100 μL/well, and developed at room temperature for 10 minutes. 1M H₂SO₄ was added, 100 μL/well, to stop the development. The absorbance at 450 nm was read on a microplate reader.

Row | EC50 [nM] | Binder
9 | 0.494 | B9

biological target: T1, recombinant human PD-L1 (Sino …); experiment: SPR, Biacore X100
Experimental: This instrument utilizes optical surface plasmon resonance technology to detect the association and dissociation between the molecules coated on the biochip and the molecules to be tested. Association constants and dissociation constants were analyzed and calculated by Biacore X100 evaluation software. […]

Row | Kd [nM] | koff [s⁻¹] | kon [M⁻¹ s⁻¹] | Binder
10 | 1.71 | 0.000584 | 341000 | B1
11 | 1.94 | 0.00072 | 372000 | B2
12 | 1.39 | 0.000477 | 342000 | B3
13 | 2.56 | 0.000833 | 326000 | B4
14 | 1.56 | 0.000528 | 338000 | B5
15 | 2.93 | 0.000747 | 255000 | B6
16 | 3.23 | 0.000994 | 307000 | B7
17 | 3.16 | 0.00108 | 341000 | B8

biological target: T2, recombinant human PD-L1-Fc protein (human, UniProt Q9NZQ7 19-238, limits assumed); experiment: competition ELISA: PD-L1-Fc coated, competitor biotin-labelled PD-1-Fc
T2 construct: Prepared by Beijing Hanmi Pharmaceutical; The GenBank number is NP_001254635.1
Experimental: as §1, with “PD-L1-Fc” for “PD-L1 (Sino Biological Inc.)”, “Streptavidin-HRP (BD Pharmingen,” for “horseradish peroxidase-labeled anti-human IgG antibody (Chemicon,”, “554066)” for “AP309P)”, “1:1000” for “1:10000”

T2 sequence (Q9NZQ7 19-238 limits assumed): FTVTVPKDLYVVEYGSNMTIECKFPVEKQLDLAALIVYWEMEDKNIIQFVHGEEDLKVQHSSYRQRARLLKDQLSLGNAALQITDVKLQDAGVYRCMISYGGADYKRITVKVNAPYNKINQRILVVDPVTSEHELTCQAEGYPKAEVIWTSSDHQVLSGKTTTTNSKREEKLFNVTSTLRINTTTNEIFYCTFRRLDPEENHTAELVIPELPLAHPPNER

Row | IC50 [nM] | Binder
18 | 0.749 | B1
19 | 0.585 | B2
20 | 0.666 | B3
21 | 0.567 | B4
22 | 0.613 | B5
23 | 0.617 | B6
24 | 0.725 | B7
25 | 0.756 | B8

biological target: T2, recombinant human PD-L1-Fc protein; experiment: blocking ELISA, plate coated with 1 ug/mL human PD-L1-Fc; blocked ligand biotin-labelled PD-1-Fc at 20 nM final, streptavidin-HRP, OD450
Experimental: as §1, with “PD-L1-Fc” for “PD-L1 (Sino Biological Inc.)”, “Streptavidin-HRP (BD Pharmingen,” for “horseradish peroxidase-labeled anti-human IgG antibody (Chemicon,”, “554066)” for “AP309P)”, “1:1000” for “1:10000”

Row | IC50 [nM] | Binder
26 | 0.61 | B9

biological target: T1, recombinant human PD-L1 (Sino …); experiment: affinity determination (dissociation constant), method not stated

Row | koff [s⁻¹] | Binder
27 | 0.000672 | B1
28 | 0.000763 | B10
29 | 0.000841 | B11
30 | 0.000452 | B12
31 | 0.00599 | B13
32 | 0.00532 | B14
33 | 0.00156 | B15
34 | 0.00618 | B16
35 | 0.0058 | B17
36 | 0.00325 | B18
37 | 0.000486 | B3
38 | 0.0052 | B19
39 | 0.000652 | B20
40 | 0.00424 | B21
41 | 0.00438 | B22
42 | 0.00544 | B23
43 | 0.000994 | B24
44 | 0.00121 | B25
45 | 0.00121 | B26
46 | 0.00597 | B27

biological target: T1, recombinant human PD-L1 (Sino …); experiment: PD-L1/CD80 blocking assay, competitor CD80, format not described

Row | IC50 [nM] | Binder
47 | 0.89 | B1
48 | 0.755 | B2
49 | 0.802 | B3
50 | 0.795 | B4
51 | 0.813 | B5
52 | 0.804 | B6
53 | 0.857 | B7
54 | 0.865 | B8
